Paper PMC3506182 (Cancer research, 2012)

Biological target: T1, recombinant human CCN6 (rhCCN6) protein, full length (human, UniProt O95389 24-354)
T1 sequence (looked up): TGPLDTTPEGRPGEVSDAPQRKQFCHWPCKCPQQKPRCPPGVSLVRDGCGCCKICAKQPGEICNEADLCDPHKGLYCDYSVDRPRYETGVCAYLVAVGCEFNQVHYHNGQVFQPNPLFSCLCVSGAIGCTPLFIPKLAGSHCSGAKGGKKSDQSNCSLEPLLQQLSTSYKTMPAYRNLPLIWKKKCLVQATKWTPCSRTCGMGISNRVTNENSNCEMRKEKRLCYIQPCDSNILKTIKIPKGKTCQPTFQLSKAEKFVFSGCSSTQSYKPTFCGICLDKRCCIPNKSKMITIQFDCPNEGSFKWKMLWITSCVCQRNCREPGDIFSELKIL
Assay: SPR

B1: disulfide linked homodimer of biotin labeled rhBMP4 (Bio-BMP4) (ligand, human, UniProt P12644 293-408, looked up)
chain: SPKHHSQRARKKNKNCRRHSLYVDFSDVGWNDWIVAPPGYQAFYCHGDCPFPLADHLNSTNHAIVQTLVNSVNSSIPKACCVPTELSAISMLYLDEYDKVVLKNYQEMVVEGCGCR
modifications: biotin label (site not stated)
With B1 the Kd was 200 nM.
